Measurements taken from US20220153832A1 (PIONYR IMMUNOTHERAPEUTICS, published 2022).

What was measured:
[1] = target: T1, N-terminally polyhistidine tagged human MARCO ECD (147-520), recombinant (human, UniProt Q9UEW3 147-520); assay: KD (nM) Human; method not given
T1 construct: also called PI-RG-3000; recombinant human MARCO; not shown: N-terminal polyhistidine tag
T1 sequence: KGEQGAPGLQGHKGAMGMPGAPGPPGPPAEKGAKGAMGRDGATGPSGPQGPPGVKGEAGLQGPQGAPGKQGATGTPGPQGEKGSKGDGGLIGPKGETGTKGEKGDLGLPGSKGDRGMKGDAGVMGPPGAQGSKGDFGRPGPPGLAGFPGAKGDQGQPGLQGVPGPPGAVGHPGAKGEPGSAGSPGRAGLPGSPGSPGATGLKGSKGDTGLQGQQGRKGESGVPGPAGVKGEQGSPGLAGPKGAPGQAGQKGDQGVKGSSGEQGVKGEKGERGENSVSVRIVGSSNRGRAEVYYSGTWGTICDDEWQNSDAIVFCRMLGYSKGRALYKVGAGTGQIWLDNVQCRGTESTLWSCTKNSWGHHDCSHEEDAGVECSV

[2] = target: T2, hVar3 (RG3036) (human, UniProt Q9UEW3 147-520); assay: ELISA on hVar3
T2 construct: Human MARCO His-CLD-SRCR with Q452D, Y472S and K473S (already in the entry); also called recombinant human SRCR MARCO hVar3 protein

[3] = target: T3, Human Macrophage Receptor with Collagenous Structure (MARCO), full length, on cells (human, UniProt Q9UEW3 1-520); assay: flow cytometry, cells overexpressing human MARCO
T3 construct: the cell type is named under assay; also called huMARCO; HuMARCO
T3 sequence: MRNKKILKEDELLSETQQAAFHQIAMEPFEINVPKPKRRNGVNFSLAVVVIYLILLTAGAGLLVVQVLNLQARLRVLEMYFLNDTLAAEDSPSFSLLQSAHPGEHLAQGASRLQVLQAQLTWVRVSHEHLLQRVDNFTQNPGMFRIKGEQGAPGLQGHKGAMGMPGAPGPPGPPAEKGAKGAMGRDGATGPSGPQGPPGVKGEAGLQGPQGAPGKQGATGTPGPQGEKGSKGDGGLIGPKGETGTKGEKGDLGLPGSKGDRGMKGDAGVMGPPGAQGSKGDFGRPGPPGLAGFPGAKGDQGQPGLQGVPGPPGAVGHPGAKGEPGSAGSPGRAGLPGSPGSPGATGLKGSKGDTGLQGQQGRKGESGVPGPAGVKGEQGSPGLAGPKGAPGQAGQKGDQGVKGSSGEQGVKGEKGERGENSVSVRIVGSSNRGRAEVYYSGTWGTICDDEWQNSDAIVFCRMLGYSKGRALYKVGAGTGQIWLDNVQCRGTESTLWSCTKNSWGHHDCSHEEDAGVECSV
Protocol: Supernatants were removed and cell pellets were resuspended in Ca²⁺+ and Mg²⁺+ Dulbecco's phosphate-buffered saline (D-PBS) at 1×10⁶ cells/ml. 100,000 cells/well were plated onto U-bottom 96-well plates for staining and all centrifugation steps were performed at 1500 rpm at 4° C. for 5 min and samples were kept protected from light throughout the protocol. Cells were pelleted and resuspended in 100 μl of Zombie NIR viability dye (BioLegend) prepared by diluting Zombie NIR dimethyl sulfoxide (DMSO) stock 1000-fold in D-PBS. Cells were stained by incubation for 10 min at room temperature (RT) in the dark, followed by quenching the staining reaction with the addition of 100 μl of Staining Medium (D-PBS containing 2% FBS and 2 mM ethylenediaminetetraacetic acid (EDTA). Cells were pelleted and resuspended in 100 μl of the different antibodies and hybridomas supernatants needed for screening and corresponding isotype controls in freshly prepared staining medium, such as PI-M014 and mIgG2b isotype. All mAbs were tested at the final top concentration of 100 nM (15 μg/ml) followed by an 8-point three-fold serial dilution, including 0 mg/ml control. Staining was carried out for 1 hour (hr) on ice, followed by 2 washes in Staining Medium. Cells were then pelleted and resuspended in 100 μl of allophycocyanin (APC)-conjugated goat anti-mouse IgG (Fc-specific) secondary antibody, prepared by 500-fold dilution of the antibody stocks in Staining Medium, and incubated for 30 min on ice. […] Flow cytometry data were analyzed using FlowJo software (version 10.6.1) and data were processed and further analyzed in Microsoft Excel and GraphPad Prism software (version 8). Half-maximal effective concentrations (EC₅₀) were calculated based on geometric mean fluorescence intensities (gMFI). In case when the plates were not able to be analyzed on the cytometer, cells were pelleted after the washes and fixed in 100 μl of 2% paraformaldehyde (PFA), prepared by diluting the 16% (w/v) stock (Thermo Fisher) in DPBS, for 15 min at RT. […]

[4] = target: T1, N-terminally polyhistidine tagged human …; assay: ProbeLife Gator
Protocol: The kinetics assay used either anti-mouse Fc or anti-human Fc probes to capture the anti-MARCO antibodies onto the probe, and then a five-step kinetic protocol was used to measure the affinity of the antibodies to the antigen, including the following steps: baseline, loading, baseline, association, and dissociation. The kinetics buffer (K buffer) provided by ProbeLife was used to establish the baseline for 60 seconds, and then the anti-mFc or anti-hFc probes were loaded with 200 nM of the antibodies for 120s until the capture reached saturation, measurement of the baseline in K buffer was performed for another 60s, followed by the association step using 200 nM antigen (human MARCO, mouse MARCO or cyno MARCO), and the dissociation step performed in K buffer for 5-10 minutes. The assay was done at 37° C. to maximize antibody:antigen dissociation.

[5] = target: T4, Cynomolgus MARCO, full length, on cells (cynomolgus, UniProt A0A2K5X0Z2 1-519); assay: flow cytometry, cells overexpressing cyno MARCO
T4 construct: whole, on cells; also called cyno MARCO; CyMARCO
T4 sequence: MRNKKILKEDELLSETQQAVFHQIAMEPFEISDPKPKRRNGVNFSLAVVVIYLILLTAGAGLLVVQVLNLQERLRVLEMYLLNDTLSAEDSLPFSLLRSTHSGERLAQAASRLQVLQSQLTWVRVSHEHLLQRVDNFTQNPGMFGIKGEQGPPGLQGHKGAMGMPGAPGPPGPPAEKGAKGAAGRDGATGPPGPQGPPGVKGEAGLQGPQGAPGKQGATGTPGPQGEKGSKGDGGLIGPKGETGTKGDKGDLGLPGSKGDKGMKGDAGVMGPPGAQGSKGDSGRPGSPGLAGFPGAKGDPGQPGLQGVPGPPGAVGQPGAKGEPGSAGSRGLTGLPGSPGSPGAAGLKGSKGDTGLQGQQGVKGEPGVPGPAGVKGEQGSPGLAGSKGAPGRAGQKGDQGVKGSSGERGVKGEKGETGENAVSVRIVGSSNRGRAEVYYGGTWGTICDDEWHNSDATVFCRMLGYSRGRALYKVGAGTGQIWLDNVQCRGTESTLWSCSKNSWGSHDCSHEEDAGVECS

[6] = target: T5, chimera Mouse MARCO CLD-human MARCO SRCR, on cells; assay: flow cytometry, cells overexpressing HuSRCR-mouse CLD chimera
T5 chain: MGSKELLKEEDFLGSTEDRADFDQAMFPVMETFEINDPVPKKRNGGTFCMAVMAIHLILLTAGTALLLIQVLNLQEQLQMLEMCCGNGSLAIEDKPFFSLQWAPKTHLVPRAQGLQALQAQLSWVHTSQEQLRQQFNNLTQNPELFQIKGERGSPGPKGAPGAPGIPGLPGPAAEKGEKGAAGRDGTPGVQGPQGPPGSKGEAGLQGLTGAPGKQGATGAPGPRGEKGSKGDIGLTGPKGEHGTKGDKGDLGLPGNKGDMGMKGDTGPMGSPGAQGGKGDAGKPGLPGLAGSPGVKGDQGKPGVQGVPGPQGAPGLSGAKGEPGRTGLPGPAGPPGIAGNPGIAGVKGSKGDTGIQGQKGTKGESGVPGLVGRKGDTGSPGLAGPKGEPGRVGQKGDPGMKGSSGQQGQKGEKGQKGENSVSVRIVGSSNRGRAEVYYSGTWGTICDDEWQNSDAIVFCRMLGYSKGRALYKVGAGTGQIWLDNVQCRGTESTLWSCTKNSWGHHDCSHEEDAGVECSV

Kd [1]: 0.44 nM
binding result [2]: no binding
EC50 [3]: 0.55 nM
koff [4]: 0.00351 s⁻¹
EC50 [5]: 0.38 nM
EC50 [6]: 0.17 nM
B1: PI-3030-AB (antibody, human IgG1, kappa)
heavy: not shown
light: DIQMTQSPASLSASLGETVSIECLASAGISNDLAWYQQKSGKSPQLLIYAASRLQDGVPSRFSGSGSGTRFSLKISDMQPEDEADYFCQQSYKYPWTFGGGTKLELKRTVAAPSVFIFPPSDEQLKSGTASVVCLLNNFYPREAKVQWKVDNALQSGNSQESVTEQDSKDSTYSLSSTLTLSKADYEKHKVYACEVTHQGLSSPVTKSFNRGEC
notes: Human IgG1 chimera of PI-HX-3011; also called HX3011-h1 Chimera hIgG1
